# Key:
# Details in all cases: both partners purified
# [1] = target: T1, Avi-tagged, biotinylated h14-3-3ß_(nY130) (Homo sapiens, UniProt P31946, 3-nitrotyrosine at 130; biotin on the N-terminal Avi tag); assay: BLI; Nb-G5 (C115S) against nitrated and WT h14-3-3β; conditions of this experiment not told
# T1 construct: human 14-3-3 beta with 3-nitrotyrosine in place of Y130, from a pBAD-AVI-14-3-3-His plasmid; also called 14-3-3β_(nY130); 14-3-3_(nY130); source: E. coli BL21ai with genetic code expansion, co-expressed with GST-BirA, purified (TALON); not shown: Avi tag, N-terminal, kept
# [2] = target: calmodulin WT (species ; human CALM1 entry, …, UniProt P0DP23); assay: BLI; CaM forms on sensors (kind of sensor not told), Nb-G5 in solution (300 nM in Figure 3C); 0.05% Tween; local fits
# [3] = target: T2, h14-3-3ß_(nY213), His-tagged (Homo sapiens, UniProt P31946, 3-nitrotyrosine at 213); assay: far-Western, overlay or dot blot; 14-3-3 targets (0.5-5 µg) dotted on PVDF, probed with Nb-G5 diluted 1:3,000 in TBS at room temperature, detected with anti-llama HRP
# T2 construct: human 14-3-3 beta with 3-nitrotyrosine in place of Y213 (amber suppression); also called nitrated human 14-3-3ß isoform nY213; source: E. coli BL21ai with genetic code expansion, purified (TALON)
# [4] = target: T3, h14-3-3ß_(nY130), His-tagged (Homo sapiens, UniProt P31946, 3-nitrotyrosine at 130); assay: as above
# T3 construct: human 14-3-3 beta with 3-nitrotyrosine in place of Y130 (amber suppression); Held on nickel-coated ELISA plates; also called 14-3-3β nitroY130; source: E. coli BL21ai with genetic code expansion, purified (TALON)
# T3 sequence (P31946 whole entry): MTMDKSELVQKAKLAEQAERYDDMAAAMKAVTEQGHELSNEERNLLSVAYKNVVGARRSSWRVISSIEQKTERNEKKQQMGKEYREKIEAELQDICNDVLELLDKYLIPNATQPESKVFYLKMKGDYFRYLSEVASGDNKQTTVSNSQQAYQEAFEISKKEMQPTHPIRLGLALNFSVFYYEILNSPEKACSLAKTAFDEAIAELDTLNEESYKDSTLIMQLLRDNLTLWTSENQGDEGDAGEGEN
# T1 sequence (P31946 whole entry): as above
# T2 sequence (P31946 whole entry, canonical isoform): as the sequence (P31946 whole entry) above
Binder,fold decrease of binding against Nb-G5 [1],binding result [2],binding result [3],binding result [4]
"Nb-G5 (C115S) (VHH, also called C115S mutant of Nb-G5) VHH: QVQLQESGGGLVQPGGSLRLSCAASKNIANFDSMAWYRRSPGKERDLVARLYSDGGTNYEDSVKGRFNISTDIEKNTVYLQMNNLKLEDTARYYCRADLGLFDTSEFPGQGTQVTVSS",6 fold,,,
"Nb-G5 (VHH, alpaca nanobody from phage display; The methods describe two cleavable tags for nanobodies (His6-SUMO cut by ULP1, His-bdNEDD8 cut by bdNEDP1); also called anti-nitroTyr Nb; source: E. coli, purified (TALON, tag cleaved, Superdex 200 SEC)) VHH: QVQLQESGGGLVQPGGSLRLSCAASKNIANFDSMAWYRRSPGKERDLVARLYSDGGTNYEDSVKGRFNISTDIEKNTVYLQMNNLKLEDTARYYCRADLGLFDTCEFPGQGTQVTVSS",,no binding (tested: 300 nM),binds,binds

# Source: article PMC8899190, “Creating a Selective Nanobody Against 3-Nitrotyrosine Containing Proteins” (Frontiers in Chemistry, 2022)
